Reference: patent US20230193255

Assays:
[1] = molecular target: TEV cleavage site ENLYFQS
[2] = molecular target: Variant TEV cleavage site ENLFFQS
[3] = molecular target: Variant TEV cleavage site ENVYFQS

B1: TEV protease S219V mutant (protein)
chain: ESLFKGPRDYNPISSTICHLTNESDGHTTSLYGIGFGPFIITNKHLFRRNNGTLLVQSLHGVFKVKNTTTLQQHLIDGRDMIIIRMPKDFPPFPQKLKFREPQREERICLVTTNFQTKSMSSMVSDTSCTFPSSDGIFWKHWIQTKDGQCGSPLVSTRDGFIVGIHSASNFTNTNNYFTSVPKNFMELLTNQEAQQWVSGWRLNADSVLWGGHKVFMVKPEEPFQPVKEATQLMN
[1]
  efficiency of cleavage by TEV at the TCS: considered to be 100% efficient
[2]
  efficiency of cleavage by TEV at the TCS: found to exhibit 10% efficiency
[3]
  efficiency of cleavage by TEV at the TCS: found to exhibit 1% efficiency
